Source: publication PMC5515574

Tests used:
[1] = molecular target: mutant T238V yeast αβ-tubulin (T238V in Tub2p, β-tubulin) (yeast (S. cerevisiae)) (UniProt P09733); assay: laser trap plucking force assay; bead tethered by a single anti-His antibody to the His6 tag of β-tubulin at the growing end of a coverslip-anchored microtubule; force ramp 0.25 pN s^-1 until detachment; only detachments followed at once by disassembly counted; removal of tubulin dimers from the microtubule end
[2] = molecular target: wild-type yeast αβ-tubulin with a His6 tag fused to the C-terminus of β-tubulin (yeast (S. cerevisiae)) (UniProt P09733); assay: as above

Row | Substance | plucking force [1] [pN] | plucking force [2] [pN]
1 | mutant T238V yeast αβ-tubulin (T238V in Tub2p, β-tubulin) (from UniProt P09733 1-447; P02557 1-457) (complex) | 19 | 
2 | wild-type yeast αβ-tubulin with a His6 tag fused to the C-terminus of β-tubulin (from UniProt P09733 1-447; P02557 1-457) (complex) |  | 8.3
